In US20250297029A1 (NANJING LEGEND BIOTECH, published 2025):
Changes are numbered by the printed parent chain. Values belong to the binder of their own block, whether it stands above or below them.

What was measured:
GPC3 [1] = molecular target: T1, GPC3 (UniProt P51654 25-559, limits assumed); assay: SPR as in Example 1 (Biacore T200; scFv-Fc captured, GPC3 in flow)
T1 construct: also called antigen GPC3; Glypican 3
Text: (§1) The humanized VLs (VL1 and VL1.M2) were connected to humanized VHs (VH2, VH2.M1, VH2.M5 and VH2.M6) with a (G4S)₃ linker (SEQ ID NO: 10) to construct humanized scFvs. These scFvs were expressed with a C-terminal Fc tag in HEK293 cells. The crude scFv proteins secreted to the cell culture supernatant were used for binding affinity determination using surface plasmon resonance (SPR) on a Biacore T200 machine. Briefly, the scFv protein was captured on the sensor chip pre-coated with goat-anti-human Fc polyclonal antibody (pAb) (Jackson ImmunoResearch, cat #109-005-098) via the interaction between pAb and the Fc tag, then the antigen GPC3 concentration ranging from 10 nM to 320 nM flowed through the sensor chip. After 100 s of association, running buffer (10 mM HEPES, 150 mM NaCl, 3 mM EDTA, 0.005% Tween-20, pH 7.4) flowed through the sensor chip to allow the scFv-GPC3 complex to dissociation. The sensor chip was regenerated using 50 mM HCl between cycles.
To further improve the humanization of anti-GPC3 scFvs, additional amino acid residues in VH1 and VL1 were mutated to their human germline counterparts. In HCDR2 of VH2.M6, mutations K54S, T55G or both were introduced, yielding VH2.M8 (SEQ ID NO: 11), VH2.M9 (SEQ ID NO: 12) and VH2.M10 (SEQ ID NO: 13) sequences, respectively. Mutation D57S was introduced to VH2.M6, yielding VH2.M11 sequence (SEQ ID NO: 14). All three additional mutations was introduced to VH2.M6, yielding VH2.M12 sequence (SEQ ID NO: 15). Similarly for VL1.M2, an additional N35K mutation was introduced to LCDR1, yielding VL1.M3 (SEQ ID NO: 16). Additional S94M, N96G and V99W mutations were introduced to LCDR3 of VL1.M2 individually, yielding VL1.M6 (SEQ ID NO: 17), VL1.M7 (SEQ ID NO: 18) and VL1.M8 (SEQ ID NO: 19) sequences, respectively. Additional S94M mutations was introduced to LCDR3 of VL1, yielding VL1.M9 (SEQ ID NO: 137) sequence. The binding affinity of these humanized variants were again determined using SPR as described in Example 1 (Table 5).

GPC3 [2] = molecular target: T1, GPC3; assay: SPR (Biacore T200); scFv-Fc captured by anti-human Fc pAb, GPC3 10-320 nM in flow
Text: as §1

GPC3 [3] = molecular target: T1, GPC3; assay: SPR as in Example 1; reference not named (VH2.M6 or mouse scFv)
Text: as §1
To further improve the humanization of anti-GPC3 scFvs, additional amino acid residues in VH1 and VL1 were mutated to their human germline counterparts. […] The binding affinity of these humanized variants were again determined using SPR as described in Example 1 (Table 5).

T1 sequence (P51654 25-559 limits assumed): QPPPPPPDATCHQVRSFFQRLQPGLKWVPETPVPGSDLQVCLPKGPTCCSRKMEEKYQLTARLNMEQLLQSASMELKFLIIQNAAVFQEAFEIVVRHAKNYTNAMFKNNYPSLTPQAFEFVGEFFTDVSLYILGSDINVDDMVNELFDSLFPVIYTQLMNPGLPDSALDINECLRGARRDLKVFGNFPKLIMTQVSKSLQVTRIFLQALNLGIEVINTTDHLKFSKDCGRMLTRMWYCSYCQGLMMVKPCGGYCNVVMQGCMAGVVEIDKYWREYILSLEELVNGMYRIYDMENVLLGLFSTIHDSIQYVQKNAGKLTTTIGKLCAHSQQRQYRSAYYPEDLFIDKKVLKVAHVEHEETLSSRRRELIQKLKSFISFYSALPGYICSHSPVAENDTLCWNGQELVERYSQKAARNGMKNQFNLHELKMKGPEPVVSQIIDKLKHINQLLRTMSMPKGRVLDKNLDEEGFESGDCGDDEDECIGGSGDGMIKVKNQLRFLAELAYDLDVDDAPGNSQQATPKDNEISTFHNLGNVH

Kd (GPC3 [1]): 6.8 nM
koff (GPC3 [1]): 0.00048 s⁻¹
kon (GPC3 [1]): 70000 M⁻¹ s⁻¹
Kd (GPC3 [2]): 2.7 nM
koff (GPC3 [2]): 0.0005 s⁻¹
kon (GPC3 [2]): 190000 M⁻¹ s⁻¹
B1: VL1.M2-VH2.M6 humanized scFv (scFv, not shown: a dimerising Fc or GST)
scFv: DIVMTQTPLSLSVTPGQPASISCRSSQSLVHSNGNTYLHWYLQKPGQSPQLLIYKVSSRFSGVPDRFSGSGSGTDFTLKISRVEAEDVGVYYCSQNTHVPPTFGQGTKVEIKGGGGSGGGGSGGGGSQVQLVQSGAEVKKPGASVKVSCKASGYTFTSYEMHWVRQAPGQGLEWMGALDPKTGDTAYSQKFQGRVTLTADTSTSTVYMELSSLRSEDTAVYYCTRFYSYTYWGQGTLVTVSS
notes: Crude scFv with Fc tag from HEK293 supernatant

fold drop in binding affinity (GPC3 [3]): < 4 fold
Kd (GPC3 [1]): 13 nM
koff (GPC3 [1]): 0.00085 s⁻¹
kon (GPC3 [1]): 67000 M⁻¹ s⁻¹
B2: VL1.M2-VH2.M11 humanized scFv (scFv, not shown: a dimerising Fc or GST)
scFv: B1 scFv with D184S
